Three molecules from US10925971B2, “Methods of treating PRLR positive breast cancer” (Regeneron Pharmaceuticals, Inc., priority 2016, dated 2021) can be followed below.

Where only a bound is given, the exact number is not on record here.

The target of experiment [1] is T1, monomeric human PRLR (hPRLR.mmh; SEQ ID NO:401) (Homo sapiens, UniProt P16471).
T1 construct: soluble monomeric (hPRLR.mmh); mmh (myc-myc-hexahistidine) (C)
Kind of experiment: Surface plasmon resonance (Biacore T200), antibody-capture format. Type of experiment: binding. The following applies: analyte hPRLR.mmh. In short, it runs like this: (§1)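 Antibodies (human IgG1 Fc) captured on an anti-human Fc sensor surface; soluble monomeric (.mmh) or dimeric (.mFc) PRLR injected as analyte. ka and kd obtained by fitting to a 1:1 binding model.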

In experiment [2] the test system is Macaca fascicularis PRLR (mfPRLR.mmh; SEQ ID NO:403). Described as above. Type of experiment: binding. Particulars: analyte mfPRLR.mmh. In short, it runs like this:
as §1

The target of experiment [3] is T2, dimeric human PRLR (hPRLR.mFc; SEQ ID NO:402) (Homo sapiens, UniProt P16471).
T2 construct: dimeric (hPRLR.mFc)
The description is as above. It is filed as binding. The following applies: analyte hPRLR.mFc. In short, it runs like this:
as §1

Experiment [4] relates to human PRLR in HEK293/hPRLR/STAT5-Luc cells. Kind of experiment: STAT5-Luc reporter assay, blocking of PRL-mediated receptor activation (5 nM PRL). Type of experiment: cell-based. The following applies: read-out: IC50 of Blocking 5 nM PRL; 5 nM constant PRL, 6 hr at 37° C. The text has this:
The ability of anti-PRLR antibodies to block prolactin (PRL)-mediated receptor activation was examined in a luciferase-based reporter assay. The endocrine hormone PRL binds to the extracellular domain of its cognate receptor PRLR, triggering rapid homodimerization and activating several downstream signaling cascades.
In this example, an engineered cell line was used to determine the ability of anti-PRLR antibodies to block ligand activation of the PRLR receptor. Briefly, HEK293/hPRLR/STAT5-Luc cell lines with stable incorporation of a human PRLR expression cassette and the STAT5-dependent luciferase reporter were generated via sequential rounds of Lipofectamine® 2000-mediated transfection (LifeTechnologies, Carlsbad, Calif.). Cells were selected for at least two weeks in the presence of 500 μg/mL G418 (hPRLR) and 100 μg/mL hygromycin B (STAT5-Luc). The STAT5-Luc assay utilized 2×10^5 HEK293/hPRLR/STAT5-Luc cells seeded in complete growth medium on PDL-coated 96 well plates grown overnight at 37° C., 5% CO2. To generate antibody inhibition curves, cells were incubated (6 hr at 37° C.) with serially diluted anti-human PRLR antibodies (100 nM to 24 pM) in the presence of 5 nM constant PRL before recording signal. PRL dose response curves were generated by the addition of serially diluted PRL (100 nM to 24 pM) to cells and recording signal after a 6 hr (37° C.) incubation in the absence of antibodies. The ability of the antibodies to activate PRLR in the absence of ligand was also assessed.
Luciferase activity was measured with ONE-Glo™ reagent (Promega, Madison, Wis.). Relative light units (RLUs) were measured on a Victor luminometer (Perkin Elmer, Shelton, Conn.). EC50/IC50 values were determined from a four-parameter logistic equation over an 8-point response curve using GraphPad Prism. Percent blocking and percent activation are reported for the highest antibody dose.

Sequence of Macaca fascicularis PRLR (mfPRLR.mmh; SEQ ID NO:403) (as listed by the source): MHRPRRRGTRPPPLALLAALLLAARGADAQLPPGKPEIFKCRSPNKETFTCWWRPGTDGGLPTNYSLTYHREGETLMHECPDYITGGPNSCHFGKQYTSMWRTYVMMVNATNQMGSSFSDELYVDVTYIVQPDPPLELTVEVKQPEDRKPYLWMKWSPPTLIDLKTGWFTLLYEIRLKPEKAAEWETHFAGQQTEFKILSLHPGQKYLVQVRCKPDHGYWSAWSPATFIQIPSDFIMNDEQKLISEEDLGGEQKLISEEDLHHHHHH
T2 sequence (P16471 with tags, fused parts or gaps): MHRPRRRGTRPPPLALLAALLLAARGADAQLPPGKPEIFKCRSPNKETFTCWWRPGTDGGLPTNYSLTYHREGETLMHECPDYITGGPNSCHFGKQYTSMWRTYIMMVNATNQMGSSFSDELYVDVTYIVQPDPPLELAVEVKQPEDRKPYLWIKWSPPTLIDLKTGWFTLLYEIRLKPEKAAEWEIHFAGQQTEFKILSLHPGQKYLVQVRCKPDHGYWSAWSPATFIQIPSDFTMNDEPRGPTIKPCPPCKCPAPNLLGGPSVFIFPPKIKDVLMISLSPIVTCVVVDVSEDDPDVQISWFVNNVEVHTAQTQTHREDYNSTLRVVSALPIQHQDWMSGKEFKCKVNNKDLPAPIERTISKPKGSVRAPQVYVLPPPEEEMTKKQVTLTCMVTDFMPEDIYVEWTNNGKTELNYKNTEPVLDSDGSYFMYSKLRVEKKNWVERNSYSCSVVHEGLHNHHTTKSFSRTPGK
T1 sequence (P16471 with tags, fused parts or gaps): as the sequence (as listed by the source) above, with V105I, T139A, M154I, T187I, I236T counted along it

B1: H1H6797P: fully human anti-PRLR antibody, human IgG1 Fc; HCVR/LCVR SEQ ID NOs 178/186 (antibody, V domains shown)
VH: EVQLVESGGGLVQPGGSLRLSCIVSGFTFSGSWMSWVRQLPGKGLEWVANIKEDGSDSYYVDSVEGRFTISRDNAKSSLYLQMNSLRVDDTAVYFCARARTVPLHYWGQGTLVTVSS
VL: DIQMTQSPSTLSASVGDRVTITCRASQSINIWLAWYQQKPGKAPKLLIYRASYLESGVPSSFAGGGSGTEFTLTISSLQPDDFGTYYCQHYNSYPFTFGQGTKLEIK
B1: the ka in experiment [1] (25° C.) is 1.13e+06 M/s; in experiment [1] (37° C.) it was 1.29e+06 M/s; in experiment [2] (25° C.) it was 670000 M/s; in experiment [2] (37° C.) it was 914000 M/s; in experiment [3] (25° C.) it was 982000 M/s; in experiment [3] (37° C.), 1.8e+06 M/s. Also, the kd in experiment [1] (25° C.) was determined as 0.00196 s⁻¹; in experiment [1] (37° C.), 0.00822 s⁻¹; in experiment [2] (25° C.) it was 0.00209 s⁻¹; in experiment [2] (37° C.), 0.00906 s⁻¹; in experiment [3] (25° C.), 0.000119 s⁻¹; in experiment [3] (37° C.), 0.000125 s⁻¹. In addition, the concentration for half-maximal inhibition (IC50) in experiment [4] was above 100 nM.

B2: H1H6795P: fully human anti-PRLR antibody, human IgG1 Fc; HCVR/LCVR SEQ ID NOs 162/170 (antibody, V domains shown)
VH: QVQLVQSGAEVKKPGASVKVSCKASGYTFGTSGITWVRQAPGQGLEWMGWSSAYNGKTDYAQKFQDRVTMTTDTSTTTGYMEMRSLTSDDTAVYYCTTVVRRPFDFWGQGTLVTVSS
VL: DIQMTQSPSSLSASVGDRVTITCRASQDINNFLAWFQQKPGKAPKSLIYAASSLQSGVPSKFSGGGSGTDFALTISSLQPEDFATYYCQQYSSYPITFGQGTRLEIK
As for B2, the ka in experiment [1] (25° C.) was 1.17e+06 M/s; in experiment [1] (37° C.) it was 1.36e+06 M/s; in experiment [2] (25° C.), 844000 M/s; in experiment [2] (37° C.), 973000 M/s; in experiment [3] (25° C.), 1.54e+06 M/s; in experiment [3] (37° C.), 1.94e+06 M/s. For the same molecule, the kd in experiment [1] (25° C.) was 0.00177 s⁻¹; in experiment [1] (37° C.), 0.0052 s⁻¹; in experiment [2] (25° C.), 0.00197 s⁻¹; in experiment [2] (37° C.), 0.00599 s⁻¹; in experiment [3] (25° C.), 8.41e-05 s⁻¹; in experiment [3] (37° C.), 7.77e-05 s⁻¹. In addition, the IC50 in experiment [4] is above 100 nM.

B3: H1H6774P: fully human anti-PRLR antibody, human IgG1 Fc; HCVR/LCVR SEQ ID NOs 34/42 (antibody, V domains shown)
VH: EVQLVESGGGLAQPGGSLRLSCVASGFTFSTYWMSWVRQAPGKGLDWVGNIKQDGSEQNYVDSVRGRFTISRDNAKNSLFLQMNSLRAEDTGVYYCATLLTKGDYWGQGTLVTVSS
VL: DIQMTQSPSSLSASVGDSVTITCRASQDISNYLDWFQQKPGKAPKSLIYAASILQGGVPSRFSGSGYGTDFTLTISSLQPEDFATYYCRQYKTYPFTFGPGTKVDIK
For the molecule B3, the ka in experiment [1] (25° C.) was found to be 715000 M/s; in experiment [1] (37° C.), 1.07e+06 M/s; in experiment [2] (25° C.), 495000 M/s; in experiment [2] (37° C.), 723000 M/s; in experiment [3] (25° C.) it was 798000 M/s; in experiment [3] (37° C.) it was 1.41e+06 M/s. For the same molecule, the kd in experiment [1] (25° C.) worked out at 0.000818 s⁻¹; in experiment [1] (37° C.), 0.00317 s⁻¹; in experiment [2] (25° C.), 0.000875 s⁻¹; in experiment [2] (37° C.), 0.00361 s⁻¹; in experiment [3] (25° C.), 8.94e-05 s⁻¹; in experiment [3] (37° C.) it was 0.000194 s⁻¹. The IC50 in experiment [4] is above 100 nM.
